Consider three molecules from US20020006638A1, “Methods for recombinant microbial production of fusion proteins and BPI-derived peptides” (priority 1998, published 2002).

The subject of data set [1] is E. coli J5. In words: Radial diffusion assay, antibacterial activity. The format is cell-based. Particulars: order: XMP.284, XMP.13, XMP.391, XMP.366, XMP.353, XMP.406, XMP.407 (most to least). As for the experimental part: To assess the antibacterial activity of the recombinantly produced peptides, additional experiments are conducted with E. coli J5 or E. coli E104 cells in a radial diffusion assay. For these experiments, cultures of E. coli J5 were grown overnight in TYE broth (15 g tryptone, 10 g yeast extract, 5 g NaCl per liter) and then grown to mid logarithmic phase in TEA broth media (Simon et al., Proc. Nat'l. Acad. Sci. (USA), 51:877-883 (1964)). E. coli J5 cells at 2-3×10^5 cells/mL were added to molten 0.8% agarose containing nutrient broth. Serial dilutions of peptides were prepared in 0.15 M NaCl. Five μl of the diluted peptides, or as a control, saline alone, were added to 3 mm wells prepared in the hardened agarose (5 μl/well). The plates were sealed with parafilm to prevent drying and incubated at 37° C. for 24 hours. Zones of inhibition were measured and the net areas of inhibition determined by subtracting the area comprising the 3 mm well from the area encompassing the 3 mm well plus the inhibition zone. Recombinantly produced peptides are assayed for antibacterial activity and compared to the equivalent synthetic peptides. […] Synthetic peptides XMP.406 and XMP.407 have the same sequences as peptides prepared from the encoded fusion protein described in Example 1, Section 7 and Example 3.

For data set [2], the system named is gram-negative bacteria. To be noted: broad range of gram-negative bacteria; Elsbach and Weiss (1992); cited from earlier work.
Data set [3] deals with Staphylococcus aureus (four strains), Staphylococcus epidermidis, Streptococcus faecalis, Bacillus subtilis, Micrococcus lysodeikiticus, and Listeria …. To be noted: 10^−6 M or 160 μg/mL; pH of either 7.0 or 5.5; cited from earlier work.
For data set [4], the system named is Candida albicans and Candida parapsilosis. Particulars: 10^−6 M; pH 7.0 or 5.5; cited from earlier work.
In data set [5] the test system is human, rabbit and sheep red blood cells and several human tumor cell lines. To be noted: 10^−6 M; cited from earlier work.

In the case of “XMP.284: BPI 149-161, K @ 152 (G) (SKVKWLIQLFHK)”, in data set [1], the “antibacterial activity, rank order of synthetic peptides” value is “the most antibacterial activity”.

Consider “XMP.407: BPI 147-162, P @ 147 (S), A @ 153 (W), D @ 162 (I) (PKSKVGALIQLFHKKD)”, for which, in data set [1], the “antibacterial activity, rank order of synthetic peptides” value is “the least bactericidal”.

B1: BPI: bactericidal/permeability-increasing protein, isolated from granules of mammalian polymorphonuclear leukocytes, approximately 55 kD (protein, UniProt P17213 32-487, looked up)
Bactericidal …: VNPGVVVRISQKGLDYASQQGTAALQKELKRIKIPDYSDSFKIKHLGKGHYSFYSMDIREFQLPSSQISMVPNVGLKFSISNANIKISGKWKAQKRFLKMSGNFDLSIEGMSISADLKLGSNPTSGKPTITCSSCSSHINSVHVHISKSKVGWLIQLFHKKIESALRNKMNSQVCEKVTNSVSSELQPYFQTLPVMTKIDSVAGINYGLVAPPATTAETLDVQMKGEFYSENHHNPPPFAPPVMEFPAAHDRMVYLGLSDYFFNTAGLVYQEAGVLKMTLRDDMIPKESKFRLTTKFFGTFLPEVAKKFPNMKIQIHVSASTPPHLSVQPTGLTFYPAVDVQAFAVLPNSSLASLFLIGMHTTGSMEVSAESNRLVGELKLDRLLLELKHSNIGPFPVELLQDIMNYIVPILVLPRVNEKLQKGFPLPTPARVQLYNVVLQPHQNFLLFGADVVYK
For B1, the “concentration at which anti-bacterial activity is exhibited (as low as)” value in data set [2] is given as 10^−8 to 10^−9 M. For the same molecule, the “toxic effect on gram-positive organisms” value in data set [3] is “no toxic effect”. In addition, in data set [4], the “toxic effect on fungi” value is given as “no toxic effect”. Moreover, in data set [5], the “toxicity to higher eukaryotic cells” value is listed as “non-toxic”.
